The record followed here is patent US20070298997A1, “Compounds useful in treating diabetic microvascular complications and age-related macular degeneration” (priority 2003, published 2007).

“Also recorded” adds a separate entry of the source. Like-named read-outs stand apart in the source and are kept apart here.

Series [1] has as its system retinal neovascularization. The series is classed as in vivo, Brown Norway rats. The conditions noted are these: for pre-retinal vascular cells: P<0.01. As to the method:
Retinal neovascularization was induced in Brown Norway rats by exposure of newborn rats to hyperoxia as described previously (Gao et al., 2001). Kallistatin was injected intravitreally at P12, and the control eyes received the same volume of PBS. Rats were kept under normoxia for another 5 days, and retinal neovascularization was examined by fluorescein angiography (P17). The control eyes (PBS-injected) developed typical retinal neo-vascularization, including neovascular tufts, microaneurysms, enlarged non-perfusion regions and vascular leakage (FIG. 5a).
Induction of retinal neovascularization and intravitreal injection of kallistatin: Retinal neovascularization was induced as described by Smith et al. (Smith et al., 1994) with some modifications. Briefly, newborn pigmented Brown Norway rats at postnatal day 7 (P7) were exposed to hyperoxia (75% O2) for 5 days and then normoxia. Animals were anesthetized, and kallistatin was injected into the vitreous of the right eye through the pars plana using a glass capillary. The left eye received the same volume of PBS as the control. After injection, the animals were kept in normoxia for another 5 days for further analyses.
Retinal angiography with high molecular weight fluorescein and quantification of neovascularization: Retinal angiography was as described by Smith et al. (Smith et al., 1994). Briefly, rats were anesthetized and perfused with fluorescein via intra-ventricle injection of 50 mg/ml of high molecular weight (2×10^6) fluorescein isothiocyanate-dextran (Sigma, St. Louis, Mo.). The animals were immediately sacrificed, and the eyes were enucleated and fixed in 4% paraformaldehyde for 10 min. The retina was dissected free of the lens and vitreous and incubated in 4% paraformaldehyde for 3 h. The retina was cut and flat-mounted on a gelatin-coated slide. The vasculature was then examined under a fluorescent microscope (Axioplan2 Imaging, Zeiss).
Retinal neovascularization was quantified by counting pre-retinal vascular cells as previously described (Zhang et al., 2001). The average number of pre-retinal vascular nuclei was compared to the PBS control group by Student's t test.

Series [2] relates to VEGF. Put plainly: VEGF in RCEC cell lysate by Western blot. The format is cell-based, bovine. The conditions noted are these: RCEC under hypoxia, 24 h, 40-640 nM. As to the method: FIG. 9 illustrates down-regulation of VEGF expression by kallistatin. As increased VEGF levels in the retina and vitreous play a key role in the development of retinal neovascularization, the effect of kallistatin on the expression of VEGF in cultured RCEC was determined. VEGF secreted into the conditioned medium was measured by VEGF ELISA and normalized by total protein concentration in the medium.
Measurement of VEGF in the conditioned medium of RCEC by ELISA: RCEC were seeded in T75 flasks in endothelial cell growth medium and cultured in a CO2 incubator to reach 60-70% confluency. The cells were washed 3 times with PBS and the growth medium replaced by a serum-free medium containing bFGF (GIBCO-BRL, Gaithersburg, Md.). Kallistatin was added to the medium to various concentrations and incubated with the cells for 24 h under normoxia or hypoxia (in a chamber that was perfused with a mixture of 95% N2+5% CO2). The conditioned medium was harvested for VEGF ELISA and the cells were used for Western blot analysis. The conditioned medium was centrifuged and the protein concentration in the supernatant was measured with BioRad protein assay. VEGF concentration was measured using a VEGF ELISA kit (R& D systems, Minneapolis, Minn.) and normalized by total protein concentration in the medium. […]

The subject of series [3] is primary human mesangial cells (HMC). The experiment in a line: High glucose-induced fibronectin secretion in HMC (ELISA). The series is classed as cell-based. The conditions noted are these: 30 mM glucose, 25 to 1600 nM, 3 days. The procedure: FIG. 11 illustrates blockage of high glucose-induced fibronectin secretion by kallistatin in human mesangial cells (HMC). Primary HMC was treated with high glucose (30 mM) in the presence of different concentrations of kallistatin as indicated for 3 days. Control cells were cultured in 5 mM glucose. To overcome the osmolarity difference, mannitol control cells were treated with 25 mM mannitol+5 mM glucose under the same conditions. Fibronectin secreted into the culture medium was measured by ELISA (mean±SD, n=3).
Cultured primary human mesangial cells (HMC) were treated with 30 mM glucose in the absence or presence of different concentrations of kallistatin (25-1600 nM) for 3 days. Cells cultured in 5 mM glucose were used as a control. To exclude the possible effect of osmolarity from high glucose, an osmolarity control was also included which was treated with 5 mM glucose and 25 mM mannitol. After the treatments for 3 days, secretion of fibronectin into the culture medium was measured.
(In general: An ELISA detects its analyte on a solid surface through an enzyme-linked reagent.)

Series [4] relates to TGF-β. The experiment in a line: TGF-β-induced fibronectin secretion in HMC (ELISA). The series is classed as cell-based, human. The conditions noted are these: 5 ng/ml TGF-β, 3 days. The procedure:
FIG. 12 illustrates that kallistatin blocks TGF-β-induced fibronectin over-production in HMC. HMC were treated with 5 ng/ml TGF-β without or with different concentrations of kallistatin for 3 days. Fibronectin secreted into the medium was measured by ELISA (mean±SD, n=3). TGF-β induced significant over-production of fibronectin.
Kallistatin blocks the function of TGF-β, a major pathogenic factor in DN. TGF-β is a major inflammatory and fibrosis mediator. It plays a major role in the development of DN. To explore the role of kallistatin in DN, the effect of kallistatin in blocking TGF-β activity in kidney cells was determined. HMC were treated with 5 ng/ml TGF-β for 3 days without or with different concentrations of kallistatin.

B1: kallistatin: Recombinant His-tagged rat kallistatin (serpin, SEQ ID NO:1) expressed in E. coli and affinity-purified (protein, listed as Homo sapiens)
chain: DGILGRDTLPHEDQGKGRQLHSLTLASINTDFTLSLYKKLALRNPDKNVVFSPLSISAALAILSLGAKDSTMEEILEVLKFNLTEITEEEIHHQGFGHLLQRLSQPEDQAEINTGSALFIDKEQPILSEFQEKTRALYQAEAFVADFKQCNEAKKFINDYVSNQTQGKIAELFSELDERTSMVLVNYLLFKGKWKVPFNPNDTFESEFYLDEKRSVKVPMMKIKDLTTPYIRDEELSCSVLELKYTGNASALFILPDQGKMQQVESSLQPETLKKWKDSLRPRIISELRMPKFSISTDYNLEEVLPELGIRKIFSQQADLSRITGTKNLHVSQVVHKAVLDVDETGTEGAAATAVTAALKSLPQTIPPLNFNRPFMLVITDNNGQSVFFMGKVTNPM
modifications: His tag
Take B1: the pre-retinal vascular cells entry in series [1] (OIR rats, 12.5 μg per eye intravitreal) is recorded as “significantly decreased pre-retinal vascular cells”; in series [1] (OIR rats, 25 μg per eye intravitreal), “significantly decreased pre-retinal vascular cells”. Moreover, the “retinal vasculature by fluorescein angiography” value in series [1] (OIR rats, intravitreal injection at P12, examined P17) is “apparent improvement in retinal vasculature”. Further, the “retinal vasculature by fluorescein angiography, normal rats” value in series [1] (rat, in vivo) is on record as “did not result in any apparent difference in retinal vasculature”. Besides, the “VEGF levels in the cell lysate” value in series [2] is “reduced VEGF levels in the cell lysate of RCEC in a concentration-dependent manner”. In addition, the “fibronectin production (secretion into medium)” value in series [3] is “concentration-dependent decrease of fibronectin production; also recorded: fibronectin was significantly lower than the high glucose alone”. In addition, the values for the TGF-β-induced fibronectin secretion entry in series [4] and in series [4] (listed as Kallistatin) were “blocked the TGF-β-induced fibronectin secretion in a concentration-dependent manner” and “blocked the TGF-β-induced fibronectin production in a concentration-dependent manner”, respectively.
